Source: doi:10.1101/2022.10.20.22281069 (medRxiv, 2022)

Target: PCNA-WT (Proliferating Cell Nuclear Antigen, wild type) (human, UniProt P12004 1-261)
Assay: ITC

Sequence of PCNA-WT (Proliferating Cell Nuclear Antigen, wild type) (P12004 whole entry): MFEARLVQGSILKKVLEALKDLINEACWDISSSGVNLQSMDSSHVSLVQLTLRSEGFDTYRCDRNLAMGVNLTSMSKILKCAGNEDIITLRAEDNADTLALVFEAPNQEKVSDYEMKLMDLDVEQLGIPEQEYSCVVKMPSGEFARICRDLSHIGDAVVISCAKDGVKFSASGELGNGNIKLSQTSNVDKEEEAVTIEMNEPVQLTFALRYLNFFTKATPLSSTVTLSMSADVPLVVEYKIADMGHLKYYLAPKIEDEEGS

binding result | Binder
binds | KANRQVSITGFFQRK [pol δ p66 PIP-box peptide]
binds | DKSGMKSIDTFFGVKNKKKIGKV [RNaseH2B PIP-box peptide]
binds | STQGRLDDFFKVTGSL [FEN1 PIP-box peptide]
